Where two headings read alike, the source gives them in different places. Some results are limits rather than exact numbers.

The conditions of series [1]: cited from earlier work; for tstability of drug: at 37° C.
Series [2] is described as follows: hGH stability tests in phosphate buffer (0.01 ppm hGH solution, stability versus time). Format: physicochemical. The conditions noted are these: 0.01 ppm hGH in 0.05 M phosphate buffer pH=7.4. Here is the method: In this example, exemplary systems and methods were used for performing dissolution tests on human growth hormone (hGH), consistent with an exemplary embodiment of the present disclosure. The release performance of hGH was evaluated for a 14-day period. First, the stability of hGH in a phosphate buffer at 37±1° C. was tested. To this end, a 0.01 ppm hGH solution in a 0.05 M phosphate buffer with a pH=7.4 was prepared. The prepared hGH solution was maintained at a temperature of approximately 37±1° C. and stability analyses were performed at 0, 1, 2, 3, 4, 6, 12, and 24 hours.
FIG. 4 illustrates an hGH stability versus time graph obtained from stability tests performed at 37±1° C., consistent with one or more exemplary embodiments of the present disclosure. […] Therefore, if a dissolution test was to be performed by available USP apparatuses, the hGH solution would have to be prepared, sampled and analyzed every 2 hours, which means for a dissolution evaluation that needs to be performed during a 14-day period, at least 168 dissolution tests must be performed.
The stability of hGH was then tested in a phosphate buffer at 5±2° C. To this end, a 0.01 ppm hGH solution in a 0.05 M phosphate buffer with a pH=7.4 was prepared. The prepared hGH solution was maintained at a temperature of approximately 5±2° C. and stability analyses were performed at 0, 1, 2, 3, 4, and 5 days. […]

For the compound `O=C1CN(/N=C/c2ccc(-c3ccc([N+](=O)[O-])cc3)o2)C(=O)[N-]1.[Na+]` [Dantrolene, dantrolene sodium], the tstability of drug in series [1] (Buffer with pH 7.4) is 1 h. The “time for which the drug is stable in the dissolution medium” value in series [1] (phosphate buffer with a pH of 7.4, approximately 37° C.) is 1 h.
Turning to “IGF-I: IGF-I, a drug listed in Table 2 with serum as its dissolution medium”, the tstability of drug in series [1] (serum) was less than 10 h.
Turning to `COc1ccc2[nH]c([S+]([O-])Cc3ncc(C)c(OC)c3C)nc2c1` (stereo not shown) [Omeprazole], the tstability of drug in series [1] (phosphate buffer pH 7.5) was less than 10 h.
As for “hGH: human growth hormone (hGH), the temperature-sensitive drug used in the Example”, the “time for which the hGH solution is stable” value in series [2] (5±2° C., analyses at 0-5 days (FIG. 5)) was 1 days; in series [2] (37±1° C., analyses at 0-24 hours (FIG. 4)), 0.083 days. Further, in series [1] (PBS buffer pH = 7.4), the tstability of drug was 1 h.

(Values after patent publication US10962518B2, “Dissolution test for sensitive drugs” (ROYAN INSTITUTE, priority 2017, dated 2021).)
